Data from article PMC8126724, “Infant-Associated Bifidobacterial β-Galactosidases and Their Ability to Synthesize Galacto-Oligosaccharides” (Frontiers in Microbiology, 2021).

Key:
[1] = substrate: O=[N+]([O-])c1ccccc1O[C@@H]1O[C@H](CO)[C@H](O)[C@H](O)[C@H]1O; test: o-nitrophenol release, A420; format: biochemical, Bifidobacterium breve; conditions: 0.1 M sodium acetate pH 6.5, 40 °C, unit mM, not in table
From the text: o-nitrophenol release, A420 on BgaA

[2] = substrate: O=[N+]([O-])c1ccccc1O[C@@H]1O[C@H](CO)[C@H](O)[C@H](O)[C@H]1O; test: o-nitrophenol release, A420; format: biochemical, Bifidobacterium breve; conditions: 0.1 M sodium acetate pH 6.5, 40 °C, unit mM, not in table; remark: listed apart in the source
From the text: o-nitrophenol release, A420 on BgaB

| Protein | Km [1] | Km [2] |
| --- | --- | --- |
| BgaA (Bifidobacterium breve UCC2003) (protein, His6-tagged, expressed in Lactococcus lactis (pNZ8150), Ni-purified; dimer) MTNLQSAQQFSQAWLTDPRVFAVNRLAAHSSHKFYDHAPQCGEAMDLKQSLDGQWRVQMVDLADLADNELAEAAFAQPGYDAAGFSPIEVPSALETKGFLNHQYVNQQYPWSGHESPVAPDVPKHNHVALYRHEFSLEPKAAAVLEANKTAADDAAKRRVTLIFQGAATAIVVWLNGAFIGYAEDSFTPSEFDVTDVLRDGVNTLAVACFEFSSASWLEDQDFWRLHGIFRSVELEAQPLVHVNDLRVLADYDHTTGEGSLDVVALVRNAGTAAAVAATVLDAAGNTVWHSKLTAGADAETLTVKANVGKVNPWSAEEPTLYTLQVVATDAAGQVIEAALQRIGFRHFAIEDGLMKLNGKRIVFKGVDRHEFDARTGRTIAEADMIEDIHSFKRLNINAVRTSHYPNETRWYELCDEYGIYVLDETNLETHGSWTDPGDVFQPARAIPGSKDEWRAACVDRTASMVRRDYNHPSVVIWSLGNEAFGGDVFYSMRDFVHENDPFRPVHYEGTFNDPEFSAATDIMSRMYAKPDEIVKLYLGEDGKKPYISCEYSHSMGNSTGGLHLYTELERYPLYQGGFIWDYVDQALWQDCGDGTERLAYGGDFEDRPNDYEFSGDGVMFADRTPSPKAQEVKQLYANVKLVPDESGVTITNDNLFISTASSLFTARVLVDGVECWHANYRFDVPAGETVREPIAFPKVTDLVALSGSAEVTYEVDQRLAEATDWAPAGYELTFGQYVAAVSFDDGAADAVVAGDAEVAADGFNAGIHTDFGEVLLSKTQGGMVSFKRDGREMVIRRPNLTTFRALTDNDRGNGSGFERAQWMAAGRYARVTGTSVEETADGKGLKATYSYELADAKHTPVTVHYEVDAALRVHLTVKYPGEADAATLPAFGLEWILPKQYDRLRFYGLGPEETYADRLHGAKLGVFSRTAAEDCAPYLLPQETGNHEQVRWAEITDEYGHGMRVTAAGGTRFATSLLPYSSLMLEDALHQNELPKPRHTFLRLLAAQMGVGGDDTWGAPVHDEFQVPADQPLKLDVTLELI | 10.8 mM |  |
| BgaB (Bifidobacterium breve UCC2003) (protein, His6-tagged, expressed in Lactococcus lactis (pNZ8150), Ni-purified; trimer) MEHREFKWPQPLAGGKPRIWYGGDYNPDQWPEEVWDEDVALMQKAGVNLVSVAIFSWAKLEPEEGVYDFDWLDRVIDKLGKAGIAVDLASGTASPPMWMTQAHPEILWVDYRGDVCQPGARQHWRATSPVFLDYALNLCRKMAEHYKDNPYVVSWHVSNEYGCHNRFDYSEDAERAFQKWCEKKYGTIDAVNDAWGTAFWAQRMNNFSEIIPPRFIGDGNFMNPGKLLDWKRFSSDALLDFYKAERDALLEIAPKPQTTNFMVSAGGAGIDYDKWGYDVDFVSNDHYFTPGEAHFDELAYSASLCDGIARKNPWFLMEHSSSAVNWRPINYRVEPGELVRDSLAHLAMGADAICYFQWRQSKAGAEKWHSSMVPHAGPDSQIFRDVCELGADLNKLADEGLLSTKLVKSKVAVVFDYESQWATEHTATPTQEVRHWTEPLAWFRALADNGLTADVVPVRGPWDEYEAVVLPSLTILSEETTRRVREYVANGGKLFVTYYTGLVDDKDHVWLGGYPGSIRDVVGVRVEEFAPMGNDFPGAMDHLDLDNGTVAHDFADVITSVADTAHVVASFKADKWTGFDGAPAITINDFGDGKAAYVGARLGREGLAKSLPALLEELGIETSAEDDRGEVLRVERADETGENHFVFLFNRTHDVAIVDVDGEPLVASLAQVNESEHTAAIQPNGVLVVKL |  | 8.607 mM |
